Test results reported in patent publication US11994512B2, “Single-cell genomic methods to generate ex vivo cell systems that recapitulate in vivo biology with improved fidelity” (Massachusetts Institute of Technology, priority 2018, dated 2024).

B1: Q9JJK5 (protein, UniProt Q9JJK5 1-391, looked up)
chain: MEPEPQPEPVTLLVKSPNQRHRDLELSGDRSWSVSRLKAHLSRVYPERPRPEDQRLIYSGKLLLDHQCLQDLLPKQEKRHVLHLVCNVKNPSKMPETSTKGAESTEQPDNSNQTQHPGDSSSDGLRQREVLRNLSPSGWENISRPEAVQQTFQGLGPGFSGYTTYGWLQLSWFQQIYARQYYMQYLAATAASGTFVPTPSAQEIPVVSTPAPAPIHNQFPAENQPANQNAAAQAVVNPGANQNLRMNAQGGPLVEEDDEINRDWLDWTYSAATFSVFLSILYFYSSLSRFLMVMGATVVMYLHHVGWFPFRQRPVQNFPDDGGPRDAANQDPNNNLQGGMDPEMEDPNRLPPDREVLDPEHTSPSFMSTAWLVFKTFFASLLPEGPPALAN
modifications: full-length
B2: Q9ERH4 (protein, UniProt Q9ERH4 1-427, looked up)
chain: MTVPSAEELDSFKYSDLQNLAKRLGLRANMKADKLLKALKAHLNPETRKENKNQDENQFSTDETEIHVSSEEQAETESGGHVTKTRRRRRKKHKTIHGIPTSQTLLQDHLEMKGTDSSNFQNQENQENQDPRDTAEVPSLPEQRPEDGNAASSGEGEVNDIKDSKKPLEKRSLCTDEFSKLGNNKRTSATTPNFKKLHEARFKKMESIDEYIMRKKKHLKEHSSLNELKLDKKGIVTPVPPRGRLSVPCTPARQQCPQGHSATKMNVRFSAATKDNEHKCSLTKTPARKSPHVTAPGSASKGQAVFRTPKSKATERTSIAVITPFKLMTEATQTPSSSKKPVFDLKASLSRPLNYKPHKGKLKPWGQAKENNSLNERVSRVTFHRKTYKQPHLQTREERWKRQEQERKEKKEKLLEARRNLGVTKAQ
modifications: full-length
B3: Q9EPC5 (protein, UniProt Q9EPC5 1-134, looked up)
chain: MPADLSGTWNLLSSDNFEGYMLALGIDFATRKIAKLLKPQKVIEQNGDSFTIQTCSSLRNYLVKFKVGEEFEEDNKGLDNRKCTSLVTWENDKLTCVQRGEKKNRGWSHWIEGDQLHLEMFCEGQVCKQTFQRA
modifications: full-length
B4: Q9JHT5 (protein, UniProt Q9JHT5 1-344, looked up)
chain: MAAGCCGVKKQKLSSSPPSGSGGGGGASSSSHCSGESQCRAGELGLGGAGTRLNGLGGLSGGGGSGGGGGCPLSPPQGCGGGGGGGGGGGSGSGGGGISLSPPLSCGVGTLLSTPAAATASSPSSSSSSPGSRKMVVSAEMCCFCFDVLYCHLYGYQQPRTPRFTNEPYPLFVTWKIGRDKRLRGCIGTFSAMNLHSGLREYTLTSALKDSRFPPMTRDELPRLFCSVSLLTNFEDVCDYLDWEVGVHGIRIEFINEKGSKRTATYLPEVAKEQGWDHIQTIDSLLRKGGYKAPITNEFRKTIKLTRYRSEKMTLSYAEYLAHRQHHHFQNGIGHPLPPYNHYS
modifications: full-length
B5: Q9QXD6 (protein, UniProt Q9QXD6 1-338, looked up)
chain: MANHAPFETDISTLTRFVMEQGRKAQGTGELTQLLNSLCTAIKAISSAVRQAGIAQLYGIAGSTNVTGDQVKKLDILSNDLVINMLKSSYATCVLVSEENTNAIIIEPEKRGKYVVCFDPLDGSSNIDCLVSIGTIFGIYRKKSTDEPSEKDALQPGRDLVAAGYALYGSATMLVLAMDCGVNCFMLDPSIGEFIMVDRDVKMKKKGNIYSLNEGYAKDFDPAINEYLQRKKFPPDGSAPYGARYVGSMVADIHRTLVYGGIFLYPANKKSPSGKLRLLYECNPIAYVMEKAGGLATTGDKDILDIVPTEIHQKAPVVMGSSEDVQEFLEIYRKHKAK
modifications: full-length
B6: Q9ERZ0 (protein, UniProt Q9ERZ0 1-503, looked up)
chain: MDMGKGRPRLKLPQMPEAHPQKSCAPDIIGSWSLRNREQLRKRKAEAQGRQTSQWLLGEQKKRKYQRTGKGNKRGRKRQGNVEQKAEPWSQTERERVQEVLVSAEEETEHPGNSATEALPLVPSPTKAVPADQCSEAHQESIQCQERAIQNHSQTHLSPTTCQGIAVLQHSPKMCQDMAEPEVFSPNMCQETAVPQTYPPKALEEMAAAEPLSPKMCQETTVSPNHSSKVPQDMAGPEALSPNMCQEPTVPQEHTLKMCHDVARPEVLSPKTHQEMAVPKAFPCVTPGDAAGLEGCAPKALPQSDVAEGCPLDTTPTSVTPEQTTSDPDLGMAVTEGFFSEARECTVSEGVSTKTHQEAVEPEFISHETYKEFTVPIVSSQKTIQESPEPEQYSPETCQPIPGPENYSLETCHEMSGPEDLSIKTCQDREEPKHSLPEGAQKVGGAQGQDADAQDSENAGAFSQDFTEMEEENKADQDPEAPASPQGSQETCPENGIYSSALF
modifications: full-length
B7: Q9JIB0 (protein, UniProt Q9JIB0 1-185, looked up)
chain: MEPNRNCPLFGGAFSAILPTGAIDVSDLRPVPDNQEVFCHPVTDQSLIIELLELQAHVQGEAAARYHFEDVGRVQGARAVHVLSVQPLCLENLSLRGCCQDAWSLSGKQQVAKENQQVAKDVTLHQALLRLPQYQTDLLLTFNQPPCHSRSLGPENLSCPPWSLSNFEQLVTSLTLHDPNLFGPQ
modifications: full-length
B8: Q9JMH7 (protein, UniProt Q9JMH7 1-418, looked up)
chain: MEEVPPYSLSSTLFQQEEQSGVTYRIPALLYLPPTHTFLAFAEKRTSVRDEDAACLVLRRGLMKGRSVQWGPQRLLMEATLPGHRTMNPCPVWEKNTGRVYLFFICVRGHVTERCQIVWGKNAARLCFLCSEDAGCSWGEVKDLTEEVIGSEVKRWATFAVGPGHGIQLHSGRLIIPAYAYYVSRWFLCFACSVKPHSLMIYSDDFGVTWHHGKFIEPQVTGECQVAEVAGTAGNPVLYCSARTPSRFRAEAFSTDSGGCFQKPTLNPQLHEPRTGCQGSVVSFRPLKMPNTYQDSIGKGAPATQKCPLLDSPLEVEKGAETPSATWLLYSHPTSKRKRINLGIYYNRNPLEVNCWSRPWILNRGPSGYSDLAVVEEQDLVACLFECGEKNEYERIDFCLFSDHEVLSCEDCTSPSSD
modifications: full-length
B9: Q9JJ78 (protein, UniProt Q9JJ78 1-330, looked up)
chain: MEGINNFKTPNKSEKRKSVLCSTPCVNIPASPFMQKLGFGTGVSVYLMKRSPRGLSHSPWAVKKISLLCDDHYRTVYQKRLTDEAKILKNLNHPNIIGYRAFTEASDGSLCLAMEYGGEKSLNDLIEERNKDSGSPFPAAVILRVALHMARGLKYLHQEKKLLHGDIKSSNVVIKGDFETIKICDVGVSLPLDENMTVTDPEACYIGTEPWKPKEALEENGIITDKADVFAFGLTLWEMMTLCIPHVNLPDDDVDEDATFDESDFDDEAYYAALGTRPSINMEELDDSYQKAIELFCVCTNEDPKDRPSAAHIVEALELDGQCCGLSSKH
modifications: full-length
B10: Q9JME5 (protein, UniProt Q9JME5 1-1082, looked up)
chain: MSAAPAYSEDKGGSAGPGEPEYGHDPASGGIFSSDYKRHDDLKEMLDTNKDSLKLEAMKRIVAMIARGKNASDLFPAVVKNVACKNIEVKKLVYVYLVRYAEEQQDLALLSISTFQRGLKDPNQLIRASALRVLSSIRVPIIVPIMMLAIKEAASDMSPYVRKTAAHAIPKLYSLDSDQKDQLIEVIEKLLADKTTLVAGSVVMAFEEVCPERIDLIHKNYRKLCNLLIDVEEWGQVVIISMLTRYARTQFLSPTQNESLLEENPEKAFYGSEEDEAKGPGSEEAATAALPARKPYVMDPDHRLLLRNTKPLLQSRSAAVVMAVAQLYFHLAPKAEVGVIAKALVRLLRSHSEVQYVVLQNVATMSIKRRGMFEPYLKSFYIRSTDPTQIKILKLEVLTNLANETNIPTVLREFQTYIRSMDKDFVAATIQAIGRCATNIGRVRDTCLNGLVQLLSNRDELVVAESVVVIKKLLQMQPAQHGEIIKHLAKLTDNIQVPMARASILWLIGEYCEHVPKIAPDVLRKMAKSFTAEEDIVKLQVINLAAKLYLTNSKQTKLLTQYVLSLAKYDQNYDIRDRARFTRQLIVPSEQGGALSRHAKKLFLAPKPAPILESSFKDRDHFQLGSLSHLLNAKATGYQELPDWPEEAPDPSVRNVEVPEWTKCSNREKRKEKEKPFYSDSEGESGPTESADSEPESESESESKSSSGSGSGESSSESDNEEEDEEKGGGSESEQSEEEDEKKKKTKKKKASEGHREGSSSEEGSDSSSSSESEVTSESEEEQVEPASWRKKTPPGSKSAPVAKEISLLDLEDFTPPSVQPVSPPMVVSTSLAADLEGLTLTDSSLVPSLLSPVSSIGRQELLHRVAGEGLSVDYAFSRQPFSGDPHMVSLHIYFSNNSETPIKGLHVGTPKLPAGISIQEFPEIESLAPGESTTTVMGINFCDSTQAANFQLCTQTRQFYVSIQPPVGELMAPVFMSENEFKKEQGKLTGMNEITEKLTLPDTCRSDHMVVQKVTATANLGRVPCGTSDEYRFAGRTLTSGSLVLLTLDARAAGAAQLTVNSEKMVIGTMLVKDVIQALTQ
modifications: full-length

Test system: intracellular proteome of ENR+CD and ENR organoids
Experiment: LC-MS/MS TMT proteomics of ENR+CD versus ENR organoids
Type: cell-based, C57BL/6 mice
Details: for Average logFC: ENR+CD versus ENR organoids, sample pairs in aggregate (n=4, 2 technical replicates from two biological donors); for M1-1 Log2 Median Normalized / M1-2 Log2 Median Normalized / M2-1 Log2 Median Normalized / M2-2 Log2 Median Normalized: protein abundance ratio ENR+CD versus ENR organoids, LC-MS/MS TMT proteomics; for M1-1 Log2 Median Normalized: sample pair M1-1; for M1-2 Log2 Median Normalized: sample pair M1-2; for M2-1 Log2 Median Normalized: sample pair M2-1; for M2-2 Log2 Median Normalized: sample pair M2-2; for change: up = enriched in ENR+CD, down = enriched in ENR, FDR<0.05 and log fold change cut-off

Molecule	Average logFC	M1-1 Log2 Median Normalized	M1-2 Log2 Median Normalized	M2-1 Log2 Median Normalized	M2-2 Log2 Median Normalized	change
B1	1.444	1.863	0.766	1.1435	2.005	up
B2	−1.264	−1.354	−0.911	−1.2565	−1.536	down
B3	−2.14	−2.063	−2.064	−2.2365	−2.196	down
B4	1.464	1.463	1.751	1.5015	0.056	up
B5	−1.895	−1.892	−2.49	−2.2475	−0.495	down
B6	−1.361	−1.833	−1.41	−1.0155	−1.185	down
B7	−1.426	−1.2	−1.555	−1.6355	−1.315	down
B8	−1.61	−1.209	−1.761	−1.8685	−1.601	down
B9	−1.167	−1.497	−0.959	−0.7695	−1.442	down
B10	−1.256	−1.059	−1.31	−1.1945	−1.459	down
